This is an account of results in paper PMC9482650, “Quantitative fragmentomics allow affinity mapping of interactomes” (Nature Communications, 2022).

Experiment in all cases: holdup assay
What all share (parameters): key: below the threshold = too weak to quantify, mostly under pKd 3.1 to 4
What all share (details): plain residues with an end cap or a label only (N-terminal biotin on a linker: ttds)

Experiment [1] concerns the target T1, MAGI2_1, Q86UL8.
T1 sequence (Q86UL8 12-111, limits assumed, looked up): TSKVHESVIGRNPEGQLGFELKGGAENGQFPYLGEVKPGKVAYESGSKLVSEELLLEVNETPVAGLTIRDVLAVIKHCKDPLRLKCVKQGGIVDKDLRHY

The target in experiment [2] is T2, PDZD2_1, O15018.
T2 sequence (O15018 80-192, limits assumed, looked up): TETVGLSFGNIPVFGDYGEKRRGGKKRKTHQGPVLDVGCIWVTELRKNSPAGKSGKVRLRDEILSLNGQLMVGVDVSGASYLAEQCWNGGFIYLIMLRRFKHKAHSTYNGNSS

The target in experiment [3] is DLG5_2, Q8TDM6.
The target of experiment [4] is T3, MPDZ_7, O75970.
T3 sequence (O75970 1146-1253, limits assumed, looked up): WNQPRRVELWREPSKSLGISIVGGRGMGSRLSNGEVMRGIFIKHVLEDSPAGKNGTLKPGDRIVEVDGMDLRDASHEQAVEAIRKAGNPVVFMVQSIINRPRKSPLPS

Experiment [5] addresses T4, SHROOM2, Q13796.
T4 sequence (Q13796 21-118, limits assumed, looked up): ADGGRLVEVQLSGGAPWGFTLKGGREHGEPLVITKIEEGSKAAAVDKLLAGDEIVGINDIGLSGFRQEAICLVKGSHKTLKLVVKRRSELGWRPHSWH

The target in experiment [6] is GIPC3, Q8TF64.
In experiment [7] the target is T5, MPDZ_2, O75970.
T5 sequence (O75970 252-347, limits assumed, looked up): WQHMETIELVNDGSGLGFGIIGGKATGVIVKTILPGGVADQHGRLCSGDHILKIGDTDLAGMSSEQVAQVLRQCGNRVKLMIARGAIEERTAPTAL

Experiment [8] has as its target T6, PARD6B, Q9BYG5.
T6 sequence (Q9BYG5 152-260, limits assumed, looked up): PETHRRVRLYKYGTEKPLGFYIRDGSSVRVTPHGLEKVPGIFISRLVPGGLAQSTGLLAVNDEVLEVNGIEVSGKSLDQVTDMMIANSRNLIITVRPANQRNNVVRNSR

Experiment [9] deals with T7, MPP1, Q00013.
T7 sequence (Q00013 66-162, limits assumed, looked up): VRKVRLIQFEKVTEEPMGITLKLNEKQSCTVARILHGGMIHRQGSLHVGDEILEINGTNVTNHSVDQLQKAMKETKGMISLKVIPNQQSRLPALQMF

Experiment [10] has as its target Q12923.
Experiment [11] addresses Q96JY6.
The target in experiment [12] is T8, MPDZ_13, O75970.
T8 sequence (O75970 1982-2070, limits assumed, looked up): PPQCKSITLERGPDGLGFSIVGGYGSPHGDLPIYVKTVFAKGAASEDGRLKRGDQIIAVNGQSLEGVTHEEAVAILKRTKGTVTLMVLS

The target of experiment [13] is Q9UDY2.
Experiment [14] addresses PDZRN4_2, Q6ZMN7.
For experiment [15], the target named is T9, USH1C_3, Q9Y6N9.
T9 sequence (Q9Y6N9 447-547, limits assumed, looked up): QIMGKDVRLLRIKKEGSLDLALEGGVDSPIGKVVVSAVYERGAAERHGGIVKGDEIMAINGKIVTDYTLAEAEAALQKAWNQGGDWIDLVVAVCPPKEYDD

The target of experiment [16] is DVL2, O14641.
Experiment [17] addresses T10, CNKSR1, Q969H4.
T10 sequence (Q969H4 191-295, limits assumed, looked up): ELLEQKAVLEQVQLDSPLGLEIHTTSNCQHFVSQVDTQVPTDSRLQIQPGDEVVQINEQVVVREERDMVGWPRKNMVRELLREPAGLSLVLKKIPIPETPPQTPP

The target of experiment [18] is T11, GRIP1_1, Q9Y3R0.
T11 sequence (Q9Y3R0 48-146, limits assumed, looked up): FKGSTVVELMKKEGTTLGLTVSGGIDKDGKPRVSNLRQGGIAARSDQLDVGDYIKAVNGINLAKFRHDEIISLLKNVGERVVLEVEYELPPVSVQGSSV

Experiment [19] has as its target MAGI3_5, Q5TCQ9.
Experiment [20] addresses Q9Y3R0.
Experiment [21] has as its target T12, RGS12, O14924.
T12 sequence (O14924 17-108, limits assumed, looked up): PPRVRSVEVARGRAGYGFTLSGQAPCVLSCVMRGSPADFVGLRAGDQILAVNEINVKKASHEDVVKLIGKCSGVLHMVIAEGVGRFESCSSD

In experiment [22] the target is Q13009.
Experiment [23] has as its target Q9UMS6.
Experiment [24] concerns the target Q9NPB6.
Experiment [25] addresses T13, SNTB2, Q13425.
T13 sequence (Q13425 110-208, limits assumed, looked up): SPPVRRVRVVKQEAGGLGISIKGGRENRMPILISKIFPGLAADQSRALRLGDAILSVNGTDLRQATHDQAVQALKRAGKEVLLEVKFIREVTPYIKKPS

Sequence of MAGI3_5, Q5TCQ9 (Q5TCQ9 847-941): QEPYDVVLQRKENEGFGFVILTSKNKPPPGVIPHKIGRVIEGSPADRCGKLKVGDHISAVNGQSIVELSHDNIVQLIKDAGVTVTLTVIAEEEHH
Sequence of DVL2, O14641 (O14641 260-359): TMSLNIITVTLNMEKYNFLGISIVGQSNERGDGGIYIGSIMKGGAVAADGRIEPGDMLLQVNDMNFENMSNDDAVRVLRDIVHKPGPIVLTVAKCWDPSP
Sequence of GIPC3, Q8TF64 (Q8TF64 107-202): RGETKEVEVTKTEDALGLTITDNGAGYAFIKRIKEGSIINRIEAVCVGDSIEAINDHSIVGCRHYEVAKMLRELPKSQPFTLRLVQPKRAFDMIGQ
Sequence of DLG5_2, Q8TDM6 (Q8TDM6 714-800): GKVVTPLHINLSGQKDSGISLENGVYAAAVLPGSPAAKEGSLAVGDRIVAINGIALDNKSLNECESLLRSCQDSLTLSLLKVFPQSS
Sequence of PDZRN4_2, Q6ZMN7 (Q6ZMN7 389-498): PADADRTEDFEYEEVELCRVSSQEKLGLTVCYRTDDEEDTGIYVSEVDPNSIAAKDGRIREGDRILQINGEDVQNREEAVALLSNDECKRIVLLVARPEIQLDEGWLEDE

Regarding SSIDLWETAL [SLC15A5, A6NIM6], the negative logarithm of the Kd (pKd) result is “below the threshold” in experiment [1]; “below the threshold” in experiment [2]; “below the threshold” in experiment [3]; 6.09 in experiment [4]; 5.76 in experiment [5]; “below the threshold” in experiment [6]. Further, the negative-log Kd (pKd) entry in experiment [7], in [8], in experiment [9], in experiment [10], in experiment [11] and in experiment [12] was “below the threshold” in each case. Besides, the pKd entry in experiment [13], in [14], in experiment [15], in experiment [16], in experiment [17] and in experiment [18] was “below the threshold” in each case. Also, the negative-log Kd (pKd) in experiment [19] was 5.57; in experiment [20] it was “below the threshold”; in experiment [21], “below the threshold”; in experiment [22] it was “below the threshold”; in experiment [23], “below the threshold”; in [24], “below the threshold”. The negative-log Kd (pKd) in [25] was determined as 5.54.
Consider SGGKRKETLV [NET1, Q7Z628], for which the negative-log Kd (pKd) entry is “below the threshold” in experiment [1]; “below the threshold” in experiment [2]; 4.58 in experiment [3]; 4.35 in [4]; “below the threshold” in experiment [5]; 3.75 in experiment [7]. Besides, the negative logarithm of the Kd (pKd) entry in [8] is “below the threshold”; in experiment [9] it was “below the threshold”; in [12], 3.75; in experiment [14], “below the threshold”; in experiment [15] it was “below the threshold”; in [16], “below the threshold”. Besides, the figures for the negative logarithm of the Kd (pKd) entry in experiment [18], in experiment [19] and in experiment [21] were “below the threshold”, 3.72 and “below the threshold”, respectively.
Turning to SRSRRRETAL [HPV33-E6, P06427], the negative-log Kd (pKd) entry was “below the threshold” in experiment [1]; “below the threshold” in [2]; 4.78 in [3]; “below the threshold” in [4]; “below the threshold” in experiment [5]; “below the threshold” in experiment [6]. The negative logarithm of the Kd (pKd) result is “below the threshold” in [7]; “below the threshold” in [8]; 4.79 in [9]; “below the threshold” in experiment [12]; “below the threshold” in experiment [14]; “below the threshold” in experiment [15]. For the same molecule, the pKd entry is “below the threshold” in experiment [16]; “below the threshold” in experiment [17]; “below the threshold” in experiment [18]; “below the threshold” in experiment [19]; 4.5 in experiment [21]; 4.56 in experiment [25].
SHSSKGETAV [FZD7, O75084]: the pKd was 4.39 in experiment [1]; “below the threshold” in experiment [2]; “below the threshold” in experiment [3]; “below the threshold” in [4]; “below the threshold” in experiment [5]; “below the threshold” in [6]. In addition, the pKd entry in experiment [7] is “below the threshold”; in experiment [8] it was “below the threshold”; in [9] it was 4.85; in [10] it was “below the threshold”; in experiment [11] it was “below the threshold”; in experiment [12], “below the threshold”. For the same molecule, the pKd result in experiment [13], in [14], in experiment [15], in [16], in experiment [17] and in experiment [18] was “below the threshold” each time. Also, the pKd entry in experiment [19], in experiment [20], in experiment [21], in experiment [22], in [23] and in experiment [24] was “below the threshold” in each case. For the same molecule, the pKd entry in [25] is “below the threshold”.
Regarding PPRQRSETQV [HPV82-E6, Q9IR59], the pKd result in [1], in [2], in [3], in [4], in experiment [5] and in [6] was “below the threshold” throughout. Besides, the pKd entry in experiment [7] was “below the threshold”; in experiment [8], “below the threshold”; in [9], 5.75; in experiment [10], “below the threshold”; in experiment [11], “below the threshold”; in [12] it was “below the threshold”. Further, the negative-log Kd (pKd) result in experiment [13], in experiment [14], in experiment [15], in experiment [16], in experiment [17] and in [18] was “below the threshold” each time. In addition, the negative logarithm of the Kd (pKd) result in [19], in experiment [20], in experiment [21], in [22], in experiment [23] and in experiment [24] was “below the threshold” throughout. The pKd result in experiment [25] was “below the threshold”.
